Test [1] addresses T1, human CD47 on primary human platelets (human, UniProt Q08722 19-323).
T1 construct: whole, on cells
In words: FACS, binding to primary human platelets, donor1. In general terms: Flow cytometry measures light scatter and fluorescence of single cells or particles in a stream.

Test [2] addresses T1, human CD47 on primary human platelets. Description: FACS, binding to primary human platelets, donor 2.

B1: M1 #21, anti-CD47 antibody (WO2022063316A1) (antibody, V domains shown)
VH: QVQLQQWGAGLLKPSETLSLTCAVYGGSFSGYYWSWIRQPPGKGLEWIGEINQSGSTNYNPSLKSRVTISVDTSKNQFSLRLSSVTAADTAMYYCARFTGRPYYGMDVWGQGTTVTVSS
VL: SYELTQPPSVSATPGQRVTISCSGSESNIGSHKVKWYQQFAGAAPRLLIHGNDQRFSGVPDRFSGSKSGTSASLAISGLQSEDEADYYCAAWDDSLYGRVFGGGTKLTVL
Take B1: the figures for the “EC50 (read off the curve)” value in test [1] and in test [2] were approximately 0.7 nM and approximately 0.3 nM, respectively.

For orientation: EC50 (read off the curve) means the midpoint of the concentration-response curve.

(Values after patent US20250326848A1 (SHANGHAI HENLIUS BIOTECH, published 2025).)
